From publication PMC3174958 come the findings set out here.

The experiment deals with EPO-hyFc (human). Put plainly: Western blotting; purified EPO-hyFc blotted with anti-EPO and anti-human IgG antibodies; gel conditions not told.

Take EPO-hyFc (Fc fusion): the stoichiometry N was 2.
